These results are taken from patent US20200292536A1.

Experiment [1] has as its target BCL2 peptide Ac-…-amide (amino acids 41-54 of human BCL2 with linkers) (human). Nature of the experiment: chromogenic IHC on peptide/BSA gel TMA, antigen concentration at half-maximum signal.
The target of experiment [2] is Bovine serum albumin (BSA; Ultra Pure) (bovine) (UniProt P02769). Nature of the experiment: chromogenic IHC on TMA, cores without peptide.
Experiment [3] addresses BCL2 peptide Ac-…-amide (amino acids 41-54 of human BCL2 with linkers) (human). Kind of experiment: chromogenic IHC, aggregate of 10 assays; BCL2 peptide 2.5E-05 M as formulated.
Experiment [4] shares this target. Kind of experiment: chromogenic IHC on BCL2 peptide TMA with or without prior antigen retrieval.
In experiment [5] the target is Bovine serum albumin (BSA; Ultra Pure) (bovine) (UniProt P02769). Nature of the experiment: chromogenic IHC, aggregate of 10 assays; cores without peptide.
For experiment [6], the target named is BCL2 peptide Ac-…-amide (amino acids 41-54 of human BCL2 with linkers) (human). Nature of the experiment: chromogenic IHC, aggregate of 10 assays; BCL2 peptide 2.5E-08 M as formulated.
BCL2 peptide Ac-…-amide (amino acids 41-54 of human BCL2 with linkers) (human), sequence (peptide, as listed by the source): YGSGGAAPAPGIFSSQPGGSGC
The target is the same in experiment [7]. Kind of experiment: chromogenic IHC, aggregate of 10 assays; BCL2 peptide 2.5E-04 M as formulated.
Experiment [8] has the same target. Nature of the experiment: chromogenic IHC, aggregate of 10 assays; BCL2 peptide 2.5E-07 M as formulated.
For experiment [9] the target is unchanged. Kind of experiment: chromogenic IHC, aggregate of 10 assays; BCL2 peptide 2.5E-06 M as formulated.
Experiment [10] has as its target Bovine serum albumin (BSA; Ultra Pure) (bovine) (UniProt P02769). Kind of experiment: immunofluorescent IHC on TMA, cores without peptide.
Experiment [11] has as its target BCL2 peptide Ac-…-amide (amino acids 41-54 of human BCL2 with linkers) (human). Kind of experiment: IHC with clone 124 on donor block sections, alternative fixatives.
The target is the same in experiment [12]. Kind of experiment: chromogenic IHC, aggregate of 10 assays.
Experiment [13] deals with BCL2 peptide variant with N-terminal arginine (R-C) (human). Kind of experiment: chromogenic IHC with clone 124 on peptide/BSA gel TMA.
BCL2 peptide variant with N-terminal arginine (R-C) (human), sequence (peptide, as listed by the source mutant): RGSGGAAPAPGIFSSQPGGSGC
Experiment [14] addresses Bovine serum albumin (BSA; Ultra Pure) (bovine) (UniProt P02769). Nature of the experiment: chromogenic IHC, aggregate of 10 assays; BSA only cores.
For experiment [15], the target named is MYC peptide Ac-…-amide (amino acids 9-24) (human). Kind of experiment: chromogenic IHC on BCL2/MYC peptide TMA.
MYC peptide Ac-…-amide (amino acids 9-24) (human), sequence (peptide, as listed by the source): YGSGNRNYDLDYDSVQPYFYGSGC
Experiment [16] has the same target. Kind of experiment: IHC with clone Y69 on donor block sections, alternative fixatives.

UniProt P02769, sequence (P02769 25-607 limits assumed): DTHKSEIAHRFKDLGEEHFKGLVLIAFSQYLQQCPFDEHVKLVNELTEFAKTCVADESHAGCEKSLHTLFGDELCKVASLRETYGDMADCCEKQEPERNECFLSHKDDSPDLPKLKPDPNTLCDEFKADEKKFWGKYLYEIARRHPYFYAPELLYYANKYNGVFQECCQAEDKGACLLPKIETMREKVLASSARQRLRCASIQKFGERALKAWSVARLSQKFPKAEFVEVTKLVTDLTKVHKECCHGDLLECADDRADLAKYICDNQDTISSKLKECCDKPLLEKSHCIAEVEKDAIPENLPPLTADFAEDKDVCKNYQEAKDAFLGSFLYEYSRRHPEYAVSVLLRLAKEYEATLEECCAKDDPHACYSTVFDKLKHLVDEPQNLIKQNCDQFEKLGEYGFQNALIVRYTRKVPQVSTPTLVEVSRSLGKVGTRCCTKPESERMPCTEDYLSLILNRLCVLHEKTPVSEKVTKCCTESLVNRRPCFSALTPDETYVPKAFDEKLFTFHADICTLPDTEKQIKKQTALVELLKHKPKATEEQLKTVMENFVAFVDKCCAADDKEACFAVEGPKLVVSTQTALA

In experiment [1], “rabbit anti-human BCL2 clone EPR17509 (antibody)” yielded an ACHM, fold lower than the ACHM for the chromogenic clone 124 assay of 8 fold and an ACHM, fold lower than the fluorescent clone 124 assay of more than 50 fold. The substance also displayed a non-specific signal in cores containing no added peptide, % of the maximum detectable signal in experiment [2] of 23%.
As for “CONFIRM anti-bcl-2 (124) Mouse Monoclonal Primary Antibody”, the Intensity Mean (pixel intensity units) in experiment [3] came to 202; in experiment [6], 6.1; in experiment [7] it was 212; in experiment [8] it was 18; in [9] it was 105; in experiment [14], 4.8. In addition, the fold signal strength with against without antigen retrieval in experiment [4] was 6 fold. In experiment [5], the limit of blank (LOB) amounted to 8 units. For the same substance, the non-specific signal in cores containing no added peptide, fold lower than in the chromogenic clone 124 assay in experiment [10] is 1000 fold. The substance also gave a fold signal, formaldehyde fixation against zinc fixation during heating in experiment [11] of 10 fold. The non-specific signal in cores containing no added peptide, % of the maximum detectable signal in experiment [2] was determined as 2.7%. The limit of detection (LOD), peptide concentration in experiment [12] came out at 230 nM. Also, the limit of detection (LOD), signal in experiment [12] is 16 units. In addition, the ACHM (antigen concentration at half-maximum signal) in experiment [13] was found to be 443 nM. The substance further had an ACHM, fold lower than the original Y-C variant in experiment [13] of 6 fold.
With “rabbit anti-human MYC clone Y69 (antibody)”, the ACHM, fold lower than the BCL2 protocol (clone 124 on BCL2 peptide) in experiment [15] stood at 4 fold. In experiment [16], this substance came in with a fold signal, formaldehyde fixation against zinc fixation during heating of 10 fold.
